Experimental data taken from a protein production outcome set (Wang et al. 2014).

experiment: label from the status in PepcDB records

Sequence	protein production
MQSSNDPPRGAGGGPECAADHRAVPGRTYVETGQGAGYDGPRYDDPWYDALASGWGESAGPAAPGPTVPPMRRSAPAEPPRAAADVYLEVQRSAAFQEVRSRYRRFVVPAVAGFFLWYVAYVVAATSAPALMARPVAGAVNVAMVAGLGQFLTTFLLTWAYARHARLRRDRAALELRWDTQELTRGVRGDAS	failed
MQTNEHEHVIEVTDLRRVYGGGFEAVRGIDFSVRRGEVFALLGTNGAGKTSTVELLEGLAAPAGGRVRVLGHDPYTERAAVRPRTGVMLQEGGFPSELTVAETARMWAGCVSGARPPAEVLALVGLEAKSGTRVKQLSGGQRRRLDLALALLGDPEVLFLDEPSTGLDAEGRRDTWELVGALRDQGTTVLLTTHYLEEAEHLADRLAIMHDGRIAATGTPAEVTAAQPSHISFELPDGYFVGDLPPLAELGVSDHETDGRTVKLRTRELQRAATGLLVWAAQAAVELRRLDVRSASLEEAFLSIAKQVSARSDGTATDTTEKEYAA	failed
MQTRLATKQDIDTLATLERQHLNDELISGGFHLEGQAFTRTELTQLVEKHWIVVAEVNGRIIGYVIAGRWSFFETWPIYRNMLQRLNRMNGDGPQLTTQNSCQYGPIWIDNAHRGQGVFEALIAGIYREVAPSFDYMVTFIADENERSLAAHTRKANM	failed
MQTVKYLARNSGFLFLNGIATNILSFFAMLYIARHLGPEDYGIFSFAFAFIYFFSFIPDMGVHQILVREAAKEPGKAGKLIGNGTIIKFFLSFVAIILAFILINLIGFPSSTKNALYIASLGLLISGTGAYGIIYEAKLRMEYSLLFNLVSRVCLLLFVFLAVAINSTLNTFIFASVSATFVHNLLMVLFSKKLVKVSFNPDITLIKQLLREAIPIAIASVFTVVYFKIDVLMLSFLRGDAEVGFYSAAYRLTDALVFLPSAFTTSTFPLMSRYFKESFNSFSFAYARTFKYLFASGLLIAVLVTFASEKIILIFYGPEYQNSVIALQILIWATAITFISVLISSTCVSSGNQQIISKTAILAALLNVSLNLILIPSTGYIGAAVATVLSVLGSMVFGLIWVHKNLLHENPLKGTISPIIGAGVVSLFIILLEPYADIMFLSAVSVPLFAAVLYTTGWIDSDDKTIFLKLFPASRLNSKKF	failed
MQVSREFKGIFLASISATFWGISGAVAQTLFDTTDINSIWLTGIRMLGAGIALLLVSLLTHVDLWSIWRQPRDLLQIVAYTLLGLMPVQFTYFLAVEASNAATGTILQFMGPVFIALWMLVAHRQLPTRAEGLAIICALLGSFLLVTHGNPQTLVISVWALIWGLLSGVSSATNTLLPTKLLTKYDPMTVNTWSMLLGGILFNIVQPVWSIHIPLTMLNISKLTFVVLFGTLLAFLFFLQSLQYIRPTVVSLLDAFEPLSATIIAVVLLGVSFGWLDILGSVLIISTVFILAIGQGPNDRTAENFKQP	failed
MQYINIANRGVKSLSPYQAGKPIEELERELGISNIVKLASNENPFGFPESAKKAIFEQLDKLTRYPDANGFELKQTIAKKFGVQPNQITLGNGSNDLLELFAHTFATEGDEIMYSQYAFIVYPLVTKAINAIVKEIPAKNWGHDLQGFLTALSDKTKLIYIANPNNPTGNFLTSQEIEDFLAEVPENVIVVLDEAYTEFTRSEERVDSFSLLKKYSNLIISRSLSKAYGLAGLRIGYAVSNPEIADLLNRVRQPFNCNSLALTAAVAVMNDDKFVEKVAENNRIEMRRYEDFCQKNQLDYIPSKGNFITIDFKQPAAPIYDALLREGVIVRPIAGYGMPNHLRISIGLPEENDKFFTALSKVLKFA	not failed
MQYRIRRENEAPEAKNAGETLWERDIMREVLLSAYRDRRRERMWKNIWRAVSTLILVALIAGIFRKDEAALQLAGNTPHTAVVNLYGKIGNGVEDQVKKLKDGMEAAYKNPQAKAIVIRANSPGGSPVVSNTAFEEIRRLKAQHPGIPVYLVAEDMCASGCYYIAAAADKIYADPSSIVGSIGVIGSSFDATGLMEKIGVKRRVKIAGSNKGMGDPFSPETPEQSKIWEEMLTGIHGEFIKAVKTGRGGRLKFRQYPDVFSGRVYTGADALKVGLVDGLGNIYSVARDVVKAPDVVDYTPKDDFGRILGRRFGAELKASVSEALQAVRLEHHHHHH	not failed
MRAAFLIGILAAMGALTQGGSISETVGAGLIDGATITSLAAVAGLLTATGFMAFGIYSGYPVPAAFATTGAMVGVGLSLGGQPVFDTYRRIATFWLLVPPVSGSLAYLTATVLRRDDIPETVGVPLLAGVVGGIVANVQLSIIPSPAGTDQGSLAGFAAMVAGTDIAAVATTLLVAAGSFYYIRRQTQASVDKGIKTFLVVLGSVVAFSSGGSQVGLATGPLENLYRAELGLPGFVLLALGAVGILGGAWMGAPRLLQATSREYAQLGVRRSIAALVPGFIIAQAAIALGIPISFNNIIISGVIGGGLAGGSAGVSRRKIGVTVGFWLITLVTSVVIGFGVYQVLEAALGSQV	failed
MRAMRLVEIGKPLKLEDIPIPKPKGSQVLIKIEAAGVCHSDVHMRQGRFGNLRIVEDLGVKLPVTLGHEIAGRIEEVGDEVVGYSKGDLVAVNPWEGEGNCYYCRIGEEHLCDSPRWLGINYDGAYAEYVLVPHYKYLYKLRRLSAVEAAPLTCSGVTTYRAVRKASLDPSKTLVVIGAGGGLGTMAIQIAKAVSGATIIGVDVREEALEAAKRAGADYVINASSQDPVSEIRRITQGKGADAVIDLNNSEKTLSIYPYVLAKQGKYVMVGLFGADLKYHAPLITLNEVQFIGSLVGNQSDFLGIMSLAEAGKVKPMVTKTMKLEEANEAIDNLENFKAVGRQVLVP	not failed
MRARRRVMAKREALRAGSKASRQATPNSQPELEGKLFAEQDAGERTHEKLVFVPRVDIYETETGLVVVADLPGVGPEGLEVTLEKRVLSIYGRVKEDTPEGYSQAYREYEVGDFERQFTLSGDFEINGIEANIKDGVLHLAIPRAPEAAAKRIEVRSVS	failed
MRAVIQRVKKSWVEVDGKVVGSINEGLNVFLGVRKGDTEEDIEKLVNKILNLRIFEDERGKFQYSVLDIKGEILVVSQFTLYANVKKGRRPSFEEAEEPKRAKELYEKFVDKIKESGLKVETGIFGAMMDVFIENWGPVTIIIDSREI	not failed
MRCCHSGKSYRLWGHRSSQRHRSGETGRGRLRIDQPGAASRRGSRALSWCGCHHVPCPDVTGAGRVRATCRRSFVHERNPHLHMLDAFHRGDVGLYTGTMTAPALLSREAELSRRDLIALESRLREAVSRFLPFKAYSLYFPREAETVEPLWLPGEGRLLLPLIHGGALLAVFVARGVPRRIVRSLMPAFPGLLALCMENLALYKAGRTDALTGLSTRQHLVERMAREADHVRTCFANPPEGEGDLGAPLHRACMGLVVVRLASLRQVARDHGYTFADRLTTELARELSALAPEQALAARTGDYEFALLVPAAASGVCRKLAEEAVQRLSAVSLRCGLTEKAVRVCVSAGYAVYPRDMEGALFERDMAEQARVLLRKARLAAAVAGEGEGSEGPGVMGFARILAEGGAVVETHPLSRVMVNLGRSMNAREGQRFSVWSVAYPVRGGTHEPRQPLYKGEVVLLEVREDRSVAEILHLGDPTWPIEPGDRLTLLPEEKGGDARRDASGVQVDPLTGLYRHGDFLARWSEAREGCDCFALALVRFSDDGRDPEGRASHPEQLMAEAAQLCRDHFGAETLGGRYGLNSIVFFHPDMTCDAARESYRQLCDLLSKRLRIDAAVGVGCHPFLAYRRADALENALKALEYALLLPEPRVGIFDSLALNISADKRFSLGDTFGAIEEYKTALLADEGNTMAWNSLGVCMAGLGRHGEARRYFEQALQRKPGDPMALYNLGTVCQSLGETAEARKQYRKCLKYAPGHVFALVRLGQLAEGEKRYAQARQYFNKAARAGDSGGLVHRNLARLSMRQGRPDEAREHLHDALLRNPQDAVALQLMARLYLDGGEDPAMAEALSRQSVALRPDLKQGWLELARALDARGHVAEAREARLRAGER	failed
MRCGWLLGFLFLLSVLSYPRPAVAMTVLAEEYAPLSYSVDGQPRGFAVELFHELERRLALPPSDVTFMAWSRAYRLLLRGPRHAILFMGRTMEREDKVWFVGPIWVEDDYFYKKAGSHVAAATLDEARTVSRIGVVRDDFYQLRLQEMGFTNLDLGTSHEQGLRKLAQGRVDLVPMGELTAASQIANYPGLSMDSFERTDIHLLRSEMYIGFSRDMAWVEVERWQKALDHLRQDGTYDQILRKFVPQWRSR	failed
MRCKRHTVDFSSSIGVCASCLRERLFTLAVSTAASENDDNDHRHSRISPPPLLFPRSVSPYVAPRKSDAGTGTGAGGRDSVASSNNRFFATPQVVVQSSSSEKVFESDRSFKKKKSGLSRFSSFFRTRSDDYDSRRDSCDASTVFSQPSSATTSRSWFSKVISVRSKKQSTTNTCYIEDLIASESDHHHHNQNRPRQRYCRGMSPAGDSTTNDESVEESPGRLRRTPVMGTPGRKKTATIGIGRSVSGMAFCLSPLVRAKPNCSSNWKAKFPPDFGYSGELKSPAKPHLSTAASFCGNRSKKLVDLGRVDHRR	failed
MRCRVYYEDTDSEGVVYHANYLKYCERARSEFFFKQNVLPENEEGVFVIRSIKADFFTPASLGQVLEIRTQIKELRKVFVVLFQEIYCIQNASLEPMKPFKVFASEIKFGFVNRSTYSPIAIPKLFKELLNAI	failed
MRDFLVRYFPTFMLTVLLGCFSASLLLSLAGTTYWRAMAPPQRDEYLLFGLLVLIPLLVLGNLLIVRGISRAVWLVAGYFVACLLGVVPMFQYHPHQGVYLFGVLLPLLGLLLLNSKRHREMRERLLQIRQQRQRFKQQRKRG	failed
MRDILKKELILLGILISISFAGCVDQNPEEYYSKGILQYDDGNYTESIDLFEKAIQLNPEESKYWLMKGKALYNLERYEEAVDCYNYVINVIEDEYNKDVWAAKADALRHIEGKEVEAEIAEARAK	failed
MRDITAQGSNVEEAIQNALATLETTRDKVEVEVLDEGKKGIFGIGSRLAMVKVIEKEDGIQVAIDYLLDVATKMGAVITIDVEEVGKDVKLQIKGESLGMLIGKHGQTLNALQYLTQLIANKTTSQYKNIIVNVGDYRERRHETLVLLANKMADKALKTKRAVHLEPMPSFERKIIHAILSENEQIETHSEGRDPYRYIVIKPVKK	failed
MRDTIPVTILSGSLGAGKTTLLNHLLTEAGDRDIAVLVNDMGTVNVDAELIAEGSELDVDDGVAELSNGCICCELQDDLETAVVRLADDRDFDALVVESSGISEPAPVARLFTTESRVAALYRVDTLVTVLDTRLFLDSFAGETPERRGSGEASADGDGDDTEADGADRPLSDLMVEQVELSNLVVLNKTDLCTDEEMDEAEELVRALQPDAETIRTTFSQVDPDRLFDRALFDQTEISDLPGWKRALAESGHGHGEGSHDHGGDSHETDAHEGDTGHGHDDHHHPEEVYGVTSFTYRRRRPFHPDRLAEVLQDLPSGVVRSKGTVWLAGSERRVVIGQAGPSIRAEAQGPWIASLPEVEQDMYRSNRPELDWHDEHGDRRTELVFIGTDYDESALRTALDDALVTDEEWTESESLTGPFPAEQGEEAVIRSP	not failed
MRDYVEIGMGREARRTYHLDSVAIVPSRRTRSSKDVDTTWHIDAYTFDIPFMSHPTDALATPDFVIEMDKQGGLGVINAEGLWGRHADLDAAIQEVITAYGDDELDLGSCNRATKKLQELHAAALDTELLVERIAQVRSSGAT	failed
MREAIIKRAAKELKEGMYVNLGIGLPTLVANEVSGMNIVFQSENGLLGIGAYPLEGSVDADLINAGKETITVVPGASFFNSADSFAMIRGGHIDLAILGGMEVSQNGDLANWMIPKKLIKGMGGAMDLVHGAKKVIVIMEHCNKYGESKVKKECSLPLTGKGVVHQLITDLAVFEFSNNAMKLVELQEGVSLDQVKEKTEAEFEVRL	failed
MREIIVDNFAGGGGASTGIELAIGRSVDIAINHDPNAVAMHTTNHPDTLHYCESVYSIRPKVATAGRRVGLAWFSPDCRHFSKAKGAKPVEKTIRGLAWIVIRWALDVGPRVMMLENVEEFKTWGPLLAAEMRPDPERVGETFQAFVGMLTTGIPADHPALLECCEFLNISLDSEDAARLVNGLGYTVEYRELRACDYGAPTIRKRFFMVMRRDGQPIVWPEATHGDPKSPAVLAGKLAPWRTAAECIDWSIPAPSIFDRKKPLVENSLKRIARGI	failed
